This note sets out measurements from PMC5479831, “Semi-rational engineering of a thermostable aldo–keto reductase from Thermotoga maritima for synthesis of enantiopure ethyl-2-hydroxy-4-phenylbutyrate (EHPB)” (Scientific Reports, 2017).

Substitutions are numbered along the chain they refer to. Numbers in names are those of the source.

Data set [1] deals with T1, Tm1743 (Thermotoga maritima, UniProt Q9X265).
T1 construct: gene TM_1743
In words: X-ray crystal structure, […] Å. The note with it: co-crystallised, protein:NADP+ 1:1.5 molar; cofactor binding site.

Substrate in data set [2]: CCOC(=O)C(=O)CCc1ccccc1
In words: purified protein. The class given is biochemical, Thermotoga maritima. The note with it: apparent, 0.25 mM NADPH, 50 mM potassium phosphate pH 6.5, 35 °C, 30 mM DMSO.

Turning to `NC(=O)c1ccc[n+]([C@@H]2O[C@H](COP(=O)(O)OP(=O)(O)OC[C@H]3O[C@@H](n4cnc5c(N)ncnc54)[C@H](OP(=O)(O)O)[C@@H]3O)[C@@H](O)[C@H]2O)c1` [NADP^+], the “X-ray crystal structure, 2.0 Å” value in data set [1] is on record as “we crystallized Tm1743 in complex with the cofactor NADP^+”.

B1: Tm1743 (Thermotoga maritima MSB8) (protein)
chain: MLYKELGRTGEEIPALGLGTWGIGGFETPDYSRDEEMVELLKTAIKMGYTHIDTAEYYGGGHTEELIGKAIKDFRREDLFIVSKVWPTHLRRDDLLRSLENTLKRLDTDYVDLYLIHWPNPEIPLEETLSAMAEGVRQGLIRYIGVSNFDRRLLEEAISKSQEPIVCDQVKYNIEDRDPERDGLLEFCQKNGVTLVAYSPLRRTLLSEKTKRTLEEIAKNHGATIYQIMLAWLLAKPNVVAIPKAGRVEHLRENLKATEIKLSEEEMKLLDSLG
On to B1, for which, in data set [2], the Km stood at 1.10 ± 0.04 mM, the turnover number (kcat) came to 1.96 ± 0.02 s⁻¹ and the kcat/Km turned out to be 1780 ± 30 M⁻¹ s⁻¹.

B2: Tm1743 (Thermotoga maritima MSB8; W21S/W86E) (protein)
chain: B1 chain with W21S, W86E
For the molecule B2, in data set [2], the Km is recorded as 1.25 ± 0.02 mM, the kcat stood at 1.01 ± 0.01 s⁻¹ and the kcat/Km stood at 810 ± 20 M⁻¹ s⁻¹.

B3: Tm1743 (Thermotoga maritima MSB8; W118H/W21L) (protein)
chain: B1 chain with W21L, W118H
On to B3, for which, in data set [2], the Km was found to be 15.98 ± 0.20 mM, the kcat is 1.98 ± 0.01 s⁻¹ and the kcat/Km was found to be 120 ± 10 M⁻¹ s⁻¹.

B4: Tm1743 (Thermotoga maritima MSB8; W118E/W21L) (protein)
chain: B1 chain with W21L, W118E
For the molecule B4, in data set [2], the Km is 10.53 ± 0.10 mM, the kcat was found to be 1.98 ± 0.02 s⁻¹ and the kcat/Km amounted to 190 ± 10 M⁻¹ s⁻¹.

B5: Tm1743 (Thermotoga maritima MSB8; W21S/W86N) (protein)
chain: B1 chain with W21S, W86N
On to B5, for which, in data set [2], the Km stood at 1.62 ± 0.02 mM, the kcat stood at 0.84 ± 0.01 s⁻¹ and the kcat/Km was 510 ± 20 M⁻¹ s⁻¹.
